Source: article PMC10380284, “Investigating the Prevalence of RNA-Binding Metabolic Enzymes in E. coli” (International Journal of Molecular Sciences, 2023)

Tests used:
[1] = biological target: T1, quinone oxidoreductase (QorA) (Escherichia coli, UniProt P28304); test: NMR shift experiment; also competition with RNA in EMSA and MST; format: binding; conditions: 10-20 mM NADPH in the EMSA / MST competition with yffO mRNA fragment; pH 7.5
T1 construct: full-length ORF from ASKA library (pCA24N), N-terminal His-tag, expressed in E. coli BL21-Gold (DE3), IMAC and size exclusion
T1 sequence (P28304 1-327): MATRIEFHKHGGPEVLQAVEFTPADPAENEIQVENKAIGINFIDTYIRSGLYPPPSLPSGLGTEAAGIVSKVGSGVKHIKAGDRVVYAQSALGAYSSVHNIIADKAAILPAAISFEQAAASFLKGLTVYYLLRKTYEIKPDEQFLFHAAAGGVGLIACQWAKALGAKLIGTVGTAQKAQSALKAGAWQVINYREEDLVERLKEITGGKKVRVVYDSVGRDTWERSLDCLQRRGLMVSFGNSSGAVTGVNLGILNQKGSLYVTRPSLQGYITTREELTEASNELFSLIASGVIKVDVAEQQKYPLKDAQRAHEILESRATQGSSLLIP

[2] = biological target: T2, Quinone oxidoreductase QorA (Escherichia coli K12, UniProt P28304 1-327); test: EMSA; 350 nM RNA; 50 mM Tris (HEPES for PykF), 80 mM NaCl, 10 mM KCl, 0.8 mM MgCl2, 0.5 mM DTT, pH 7.5, 30 min at 37 C (EMSA); MST same buffer + 0.05% Tween-20; conditions: protein: recombinant; tags: N-terminal His (pCA24N, ASKA); label: 5' 32P
T2 sequence: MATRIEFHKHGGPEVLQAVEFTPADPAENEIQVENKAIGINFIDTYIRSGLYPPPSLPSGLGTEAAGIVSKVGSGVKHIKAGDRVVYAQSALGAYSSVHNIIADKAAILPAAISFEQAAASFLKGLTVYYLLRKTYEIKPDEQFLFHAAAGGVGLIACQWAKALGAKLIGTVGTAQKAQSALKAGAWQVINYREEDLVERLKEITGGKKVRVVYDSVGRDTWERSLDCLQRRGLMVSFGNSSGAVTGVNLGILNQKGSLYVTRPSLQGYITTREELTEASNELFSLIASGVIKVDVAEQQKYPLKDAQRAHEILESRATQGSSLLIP

[3] = biological target: T3, Phosphoglycerate kinase Pgk (Escherichia coli K12, UniProt P0A799 1-387); test: EMSA; 30 uM Pgk, 7 uM RNA; stronger than hairpins; 50 mM Tris (HEPES for PykF), 80 mM NaCl, 10 mM KCl, 0.8 mM MgCl2, 0.5 mM DTT, pH 7.5, 30 min at 37 C (EMSA); MST same buffer + 0.05% Tween-20; conditions: protein: recombinant; tags: N-terminal His (pCA24N, ASKA); label: 5' 32P; linear
T3 sequence: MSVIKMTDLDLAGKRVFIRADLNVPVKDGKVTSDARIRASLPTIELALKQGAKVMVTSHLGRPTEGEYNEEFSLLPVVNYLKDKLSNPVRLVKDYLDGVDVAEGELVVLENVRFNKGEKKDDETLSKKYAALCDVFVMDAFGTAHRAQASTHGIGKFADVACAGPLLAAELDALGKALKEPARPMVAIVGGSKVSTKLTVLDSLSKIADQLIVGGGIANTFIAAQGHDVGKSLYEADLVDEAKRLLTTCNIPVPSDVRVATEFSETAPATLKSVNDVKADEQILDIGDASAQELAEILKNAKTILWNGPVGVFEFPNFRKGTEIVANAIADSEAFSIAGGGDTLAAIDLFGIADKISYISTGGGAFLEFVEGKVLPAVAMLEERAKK

MS2 phage coat protein = MS2 phage coat protein (bacteriophage MS2, UniProt P03612 2-130); test: EMSA; 0.34-34 uM protein, 700 nM RNA; 50 mM Tris (HEPES for PykF), 80 mM NaCl, 10 mM KCl, 0.8 mM MgCl2, 0.5 mM DTT, pH 7.5, 30 min at 37 C (EMSA); MST same buffer + 0.05% Tween-20; conditions: protein: recombinant; chain copies: 2; label: 5' 32P; hairpin
Chain of MS2 phage coat protein (P03612 2-130): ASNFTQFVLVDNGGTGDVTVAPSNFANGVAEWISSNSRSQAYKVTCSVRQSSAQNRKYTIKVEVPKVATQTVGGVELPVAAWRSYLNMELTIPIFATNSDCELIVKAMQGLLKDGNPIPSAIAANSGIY

[4] = biological target: T2, Quinone oxidoreductase QorA; test: MST; 0.05% Tween-20; 10 nM RNA; 50 mM Tris (HEPES for PykF), 80 mM NaCl, 10 mM KCl, 0.8 mM MgCl2, 0.5 mM DTT, pH 7.5, 30 min at 37 C (EMSA); MST same buffer + 0.05% Tween-20; conditions: protein: recombinant; tags: N-terminal His (pCA24N, ASKA); label: Cy5

Q: How did the “NMR shift experiment; also competition with RNA in EMSA and MST” value [1] turn out when `NC(=O)C1=CN([C@@H]2O[C@H](COP(=O)(O)OP(=O)(O)OC[C@H]3O[C@@H](n4cnc5c(N)ncnc54)[C@H](OP(=O)(O)O)[C@@H]3O)[C@@H](O)[C@H]2O)C=CC1` [NADPH] was run?
A: Its value is “NMR shift experiments that revealed larger peak shifts for the QorA-NADPH complex”.

Q: GGAGCAUAUGGACUUCAGGGAAGGGAU (ssRNA) [yffO mRNA fragment, 27 nt] was tested. Which Kd [2] did it give?
A: The Kd was ~7 µM.

Q: Does AGGACAAAAACAA (ssRNA) [A-rich linear control RNA] bind [3]?
A: Result: binds

Q: Does GCACGCGUAUUCACUGAGCAUCAGCCAGACUGUGU (ssRNA) [rffG mRNA fragment] bind (MS2 phage coat protein)?
A: Result: binds

Q: How did the Kd [4] turn out when GGAGCAUAUGGACUUCAGGGAAGGGAU (ssRNA) [Cy5-yffO mRNA fragment] was run?
A: Its Kd is ~7 µM.
